In ChEMBL document CHEMBL1122375, “Synthesis and biological evaluation of 2-fluoro-8-azaadenosine and related compounds” (J Med Chem, 1983):

Legend:
[1] = substrate: Nc1ncnc2c1nnn2[C@@H]1O[C@H](CO)[C@@H](O)[C@H]1O; test: (§1) Kinetic parameter in calf intestine adenosine deaminase.
[2] = substrate: Nc1nc(N)c2ncn([C@@H]3O[C@H](CO)[C@@H](O)[C@H]3O)c2n1; test: as §1
[3] = substrate: Nc1ncnc2c1nnn2[C@H]1C[C@H](O)[C@@H](CO)O1; test: as §1
[4] = substrate: COC[C@H]1O[C@@H](n2nnc3c(O)nc(N)nc32)[C@H](OC)[C@@H]1OC; test: as §1
[5] = substrate: Nc1nc(F)nc2c1nnn2C1O[C@H](CO)[C@@H](O)[C@H]1O; test: as §1
[6] = substrate: COc1ncnc2c1ncn2[C@@H]1O[C@H](CO)[C@@H](O)[C@@H]1O; test: as §1
[7] = substrate: Nc1nc(F)nc2c1ncn2[C@@H]1O[C@H](CO)[C@@H](O)[C@H]1O; test: as §1
[8] = substrate: COc1ncnc2c1nnn2[C@@H]1O[C@H](CO)[C@@H](O)[C@H]1O; test: as §1
[9] = substrate: COC[C@H]1O[C@@H](n2cnc3c(O)nc(N)nc32)[C@H](OC)[C@@H]1OC; test: as §1

B1: Adenosine deaminase (Bos taurus), P56658 (protein)
chain: MAQTPAFNKPKVELHVHLDGAIKPETILYYGRKRGIALPADTPEELQNIIGMDKPLSLPEFLAKFDYYMPAIAGCREAVKRIAYEFVEMKAKDGVVYVEVRYSPHLLANSKVEPIPWNQAEGDLTPDEVVSLVNQGLQEGERDFGVKVRSILCCMRHQPSWSSEVVELCKKYREQTVVAIDLAGDETIEGSSLFPGHVKAYAEAVKSGVHRTVHAGEVGSANVVKEAVDTLKTERLGHGYHTLEDATLYNRLRQENMHFEVCPWSSYLTGAWKPDTEHPVVRFKNDQVNYSLNTDDPLIFKSTLDTDYQMTKNEMGFTEEEFKRLNINAAKSSFLPEDEKKELLDLLYKAYGMPSPASAEQCL
Q: With B1 as the protein, how does the Km [1] read?
A: 250 µM

Q: And the Km [2]?
A: 33 µM

Q: What about the Km [3] of the same protein?
A: 220 µM

Q: What about the Km [4] of the same protein?
A: 22 µM

Q: And the Km [5]?
A: 250 µM

Q: And the Km [6]?
A: 50 µM

Q: And the Km [7]?
A: 81 µM

Q: And the Km [8]?
A: 140 µM

Q: What about the Km [9] of the same protein?
A: 42 µM
